Values quoted from earlier work as cited in article PMC10746543, “Design principles for cyclin K molecular glue degraders” (Nature Chemical Biology, 2023).

Biological target: CDK12-cyclin K (Homo sapiens) (UniProt Q9NYV4)
Sequence (Q9NYV4 whole entry, chain 1 of 2): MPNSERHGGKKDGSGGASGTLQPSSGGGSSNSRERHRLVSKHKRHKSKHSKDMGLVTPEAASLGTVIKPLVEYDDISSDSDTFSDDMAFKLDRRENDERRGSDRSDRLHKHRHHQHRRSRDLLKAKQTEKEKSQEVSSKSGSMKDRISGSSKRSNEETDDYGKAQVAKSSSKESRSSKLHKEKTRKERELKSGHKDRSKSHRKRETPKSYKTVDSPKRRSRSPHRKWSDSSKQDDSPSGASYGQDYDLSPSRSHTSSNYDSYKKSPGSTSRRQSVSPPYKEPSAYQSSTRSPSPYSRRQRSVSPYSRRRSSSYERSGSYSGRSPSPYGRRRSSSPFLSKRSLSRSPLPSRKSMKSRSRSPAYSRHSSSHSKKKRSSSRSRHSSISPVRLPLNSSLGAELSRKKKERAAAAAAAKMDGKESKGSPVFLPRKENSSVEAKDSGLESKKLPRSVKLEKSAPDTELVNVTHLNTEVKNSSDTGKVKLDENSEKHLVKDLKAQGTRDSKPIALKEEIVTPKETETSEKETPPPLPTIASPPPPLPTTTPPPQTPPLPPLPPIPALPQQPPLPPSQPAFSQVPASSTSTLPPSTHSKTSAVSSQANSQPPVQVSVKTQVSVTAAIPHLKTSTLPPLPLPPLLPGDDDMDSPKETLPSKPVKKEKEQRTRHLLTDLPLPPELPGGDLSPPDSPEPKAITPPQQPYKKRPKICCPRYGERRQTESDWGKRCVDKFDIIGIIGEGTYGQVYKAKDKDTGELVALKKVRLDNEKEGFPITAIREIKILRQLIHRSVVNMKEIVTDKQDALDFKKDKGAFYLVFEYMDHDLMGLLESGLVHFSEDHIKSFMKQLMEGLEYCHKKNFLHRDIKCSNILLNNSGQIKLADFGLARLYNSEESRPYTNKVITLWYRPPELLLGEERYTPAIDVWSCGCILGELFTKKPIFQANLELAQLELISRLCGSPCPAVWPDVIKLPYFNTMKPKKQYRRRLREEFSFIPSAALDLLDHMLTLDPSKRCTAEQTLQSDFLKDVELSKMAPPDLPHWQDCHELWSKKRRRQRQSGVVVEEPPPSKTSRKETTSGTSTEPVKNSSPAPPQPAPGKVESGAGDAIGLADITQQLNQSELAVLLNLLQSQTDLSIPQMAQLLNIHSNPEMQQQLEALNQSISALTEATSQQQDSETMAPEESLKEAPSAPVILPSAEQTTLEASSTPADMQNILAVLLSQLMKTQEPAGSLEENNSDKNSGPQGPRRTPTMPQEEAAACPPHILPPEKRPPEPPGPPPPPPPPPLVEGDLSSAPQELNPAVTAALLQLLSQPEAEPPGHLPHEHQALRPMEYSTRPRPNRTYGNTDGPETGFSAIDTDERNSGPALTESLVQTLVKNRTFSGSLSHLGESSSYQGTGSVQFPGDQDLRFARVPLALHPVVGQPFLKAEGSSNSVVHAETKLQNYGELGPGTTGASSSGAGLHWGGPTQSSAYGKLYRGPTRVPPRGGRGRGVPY
Sequence (O75909 whole entry, chain 2 of 2, further chain): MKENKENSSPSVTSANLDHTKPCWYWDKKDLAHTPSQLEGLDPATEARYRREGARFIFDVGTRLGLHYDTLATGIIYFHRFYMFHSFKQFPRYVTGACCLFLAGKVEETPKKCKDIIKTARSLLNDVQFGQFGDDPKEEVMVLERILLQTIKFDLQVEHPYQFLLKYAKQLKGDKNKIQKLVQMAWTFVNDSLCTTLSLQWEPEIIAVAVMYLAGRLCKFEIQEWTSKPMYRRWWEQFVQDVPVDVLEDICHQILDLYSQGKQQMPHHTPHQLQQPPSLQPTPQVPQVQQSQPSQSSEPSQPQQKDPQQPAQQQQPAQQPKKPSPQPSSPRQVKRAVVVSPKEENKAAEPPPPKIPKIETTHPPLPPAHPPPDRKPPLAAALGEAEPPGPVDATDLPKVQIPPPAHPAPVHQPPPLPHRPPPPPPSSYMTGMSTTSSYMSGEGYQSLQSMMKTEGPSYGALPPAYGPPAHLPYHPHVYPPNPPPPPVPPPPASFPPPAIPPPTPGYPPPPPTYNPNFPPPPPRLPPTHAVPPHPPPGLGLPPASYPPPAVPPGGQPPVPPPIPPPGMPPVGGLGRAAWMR

Chain of DDB1 (Q16531 2-1140): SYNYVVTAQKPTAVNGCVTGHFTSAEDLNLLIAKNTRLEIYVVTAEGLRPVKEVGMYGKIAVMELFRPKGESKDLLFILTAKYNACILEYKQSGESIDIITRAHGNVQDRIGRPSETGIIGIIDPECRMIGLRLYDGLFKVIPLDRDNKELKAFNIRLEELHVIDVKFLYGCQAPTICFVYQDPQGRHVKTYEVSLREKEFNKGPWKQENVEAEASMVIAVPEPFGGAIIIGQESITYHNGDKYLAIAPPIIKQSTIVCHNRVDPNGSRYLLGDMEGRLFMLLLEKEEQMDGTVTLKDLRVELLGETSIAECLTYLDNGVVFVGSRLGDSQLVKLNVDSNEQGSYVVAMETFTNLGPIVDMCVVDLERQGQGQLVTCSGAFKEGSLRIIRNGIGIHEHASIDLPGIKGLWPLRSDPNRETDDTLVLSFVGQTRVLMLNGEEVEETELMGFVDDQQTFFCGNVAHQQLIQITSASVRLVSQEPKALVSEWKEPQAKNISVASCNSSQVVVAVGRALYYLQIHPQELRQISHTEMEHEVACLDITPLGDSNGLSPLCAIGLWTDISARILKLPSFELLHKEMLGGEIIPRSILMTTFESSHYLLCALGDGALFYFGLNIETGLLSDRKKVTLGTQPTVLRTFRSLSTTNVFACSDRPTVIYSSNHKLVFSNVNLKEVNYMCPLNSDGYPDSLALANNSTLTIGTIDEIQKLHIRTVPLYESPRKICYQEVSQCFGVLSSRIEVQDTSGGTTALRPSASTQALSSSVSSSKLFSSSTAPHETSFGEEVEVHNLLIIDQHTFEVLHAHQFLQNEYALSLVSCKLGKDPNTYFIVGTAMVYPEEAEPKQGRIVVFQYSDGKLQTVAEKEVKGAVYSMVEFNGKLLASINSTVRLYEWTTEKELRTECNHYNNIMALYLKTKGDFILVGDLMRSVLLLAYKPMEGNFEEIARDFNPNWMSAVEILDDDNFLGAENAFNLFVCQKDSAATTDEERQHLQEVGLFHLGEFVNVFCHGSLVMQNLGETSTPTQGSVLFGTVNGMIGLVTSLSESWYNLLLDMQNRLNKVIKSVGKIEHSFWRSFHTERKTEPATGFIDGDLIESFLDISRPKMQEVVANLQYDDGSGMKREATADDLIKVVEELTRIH

Question: Which Kd does the source give for DDB1 (from UniProt Q16531) here?
Answer: 50 µM
